According to PMC12667839:

Biological target: T1, GST-FOXL2-FHD (UniProt O88470 48-144)
T1 sequence: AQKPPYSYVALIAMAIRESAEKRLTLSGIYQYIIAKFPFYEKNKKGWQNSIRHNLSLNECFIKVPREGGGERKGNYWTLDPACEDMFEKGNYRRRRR
Assay: EMSA

B1: Enh 3 wt (SBE/FBE1&2) (dsDNA)
DNA 1: GCCTTGATGTGTCTGGCTCAGAGCTGGCTAGAAGGCCAAGGCTATATGC
DNA 2: GCATATAGCCTTGGCCTTCTAGCCAGCTCTGAGCCAGACACATCAAGGC
binding result: no binding
